The values that follow come from patent US20260242839A1, “GLYCOSIDE PRODUCT BIOSYNTHESIS AND RECOVERY” (Manus Bio Inc., priority 2023, published 2026).

To fix the notation:
B1: SEQ ID NO: 46: CmaUGT1 (Cucurbita maxima) (protein, listed as Cucurbita maxima)
chain: MELSHTHHVLLFPFPAKGHIKPFFSLAQLLCNAGLRVTFLNTDHHHRRIHDLNRLAAQLPTLHFDSVSDGLPPDEPRNVFDGKLYESIRQVTSSLFRELLVSYNNGTSSGRPPITCVITDVMFRFPIDIAEELGIPVFTFSTFSARFLFLIFWIPKLLEDGQLRYPEQELHGVPGAEGLIRWKDLPGFWSVEDVADWDPMNFVNQTLATSRSSGLILNTFDELEAPFLTSLSKIYKKIYSLGPINSLLKNFQSQPQYNLWKEDHSCMAWLDSQPRKSVVFVSFGSVVKLTSRQLMEFWNGLVNSGMPFLLVLRSDVIEAGEEVVREIMERKAEGRWVIVSWAPQEEVLAHDAVGGFLTHSGWNSTLESLAAGVPMISWPQIGDQTSNSTWISKVWRIGLQLEDGFDSSTIETMVRSIMDQTMEKTVAELAERAKNRASKNGTSYRNFQTLIQDITNIIETHI
B2: SEQ ID NO: 80: SrUGT73E1, with optional His tag (Stevia rebaudiana) (protein, listed as Stevia rebaudiana)
chain: MAHHHHHHVGTGSNDDDDKSPDPNWASTSELVFIPSPGAGHLPPTVELAKLLLHRDQRLSVTIIVMNLWLGPKHNTEARPCVPSLRFVDIPCDESTMALISPNTFISAFVEHHKPRVRDIVRGIIESDSVRLAGFVLDMFCMPMSDVANEFGVPSYNYFTSGAATLGLMFHLQWKRDHEGYDATELKNSDTELSVPSYVNPVPAKVLPEVVLDKEGGSKMFLDLAERIRESKGIIVNSCQAIERHALEYLSSNNNGIPPVFPVGPILNLENKKDDAKTDEIMRWLNEQPESSVVFLCFGSMGSFNEKQVKEIAVAIERSGHRFLWSLRRPTPKEKIEFPKEYENLEEVLPEGFLKRTSSIGKVIGWAPQMAVLSHPSVGGFVSHCGWNSTLESMWCGVPMAAWPLYAEQTLNAFLLVVELGLAAEIRMDYRTDTKAGYDGGMEVTVEEIEDGIRKLMSDGEIRNKVKDVKEKSRAAVVEGGSSYASIGKFIEHVSNVTI
modifications: optional His tag
B3: SEQ ID NO: 81: UGT enzyme (Camelina sativa) (protein, listed as Camelina sativa)
chain: MASEKTLQVHPPLHFVLFPFMAQGHMIPMVDIARLLAQRGATVTIVTTRYNAGRFENVLSRAVESGLPINIVHVKFPYEEVGLPKGKENIDSLDSMELMVPFFKAVNMLQDPVVKLMEEMESRPSCIISDLLLPYTSKIAKKFNIPKIVFHGISCFCLLCVHVLRRNLEILTNLKSDKEYFLVPSFPDRVEFTKPQVTVETNASGDWKEFLDEMVEAEDTSYGVIINTFEELEPAYVKDYKDARAGNVWSIGPVSLCNKAGVDKAERGNKATIDQDECLKWLDSKEEGSVLYVCLGSICNLPLVQLKELGLGLEESQRPFIWVIRGWEKYNELSEWMVESGFEERIRERGLLIRGWAPQVLILSHPSVGGFLTHCGWNSTVEGITSGVPLITWPLFGDQFCNQTLVVQVLKAGVSVGVEEVMKWGEEEKIGVLVDKEGVKKAVEDLMGESDDAKERTKRVKELGGLAHKAVEEGGSSHSNITLFLQDIRQVQSV
B4: SEQ ID NO: 82: UGT73F24 (Glycyrrhiza uralensis) (protein, listed as Glycyrrhiza sp.)
chain: MADVAEEQPLKIYFIPYLAAGHMIPLCDIATLFASRGHHVTIITTPSNAQTLRESHHFRVQTIQFPSQEVGLPAGVQNLTAVTNLDDSYKIYHATMLLRKHIEDFVERDPPDCIVADFLFPWVDDVATKLHIPRLVFNGFTLFTICAMESHKAHPLPVDAASGSFVIPDFPHHVTINSTPPKRTKEFVDPLLTEAFKSHGFLINSFVELDGEECVEHYERITGGHKAWHLGPAFLVHRTAQDRGEKSVVSTQECLSWLDSKRDNSVLYICFGTICYFPDKQLYEIASAIEASGHEFIWVVPEKRGNADESEEEKEKWLPKGFEERNNGKKGMIIRGWAPQVAILGHPAVGGFLTHCGWNSTVEAVSAGVPMITWPVHSDQYFNEKLITQVRGIGVEVGAEEWIVTAFRETEKLVGRDRIERAVRRVMDGGDEAVQIRRRARELGEMARQAVQEGGSSHTNLTALINDLKRWRDSKQLN
B5: SEQ ID NO: 17: SrUGT85C2 (Stevia rebaudiana) (protein, listed as Stevia rebaudiana)
chain: MDAMATTEKKPHVIFIPFPAQSHIKAMLKLAQLLHHKGLQITFVNTDFIHNQFLESSGPHCLDGAPGFRFETIPDGVSHSPEASIPIRESLLRSIETNFLDRFIDLVTKLPDPPTCIISDGFLSVFTIDAAKKLGIPVMMYWTLAACGFMGFYHIHSLIEKGFAPLKDASYLTNGYLDTVIDWVPGMEGIRLKDFPLDWSTDLNDKVLMFTTEAPQRSHKVSHHIFHTFDELEPSIIKTLSLRYNHIYTIGPLQLLLDQIPEEKKQTGITSLHGYSLVKEEPECFQWLQSKEPNSVVYVNFGSTTVMSLEDMTEFGWGLANSNHYFLWIIRSNLVIGENAVLPPELEEHIKKRGFIASWCSQEKVLKHPSVGGFLTHCGWGSTIESLSAGVPMICWPYSWDQLTNCRYICKEWEVGLEMGTKVKRDEVKRLVQELMGEGGHKMRNKAKDWKEKARIAIAPNGSSSLNIDKMVKEITVLARN
B6: galU: E. coli galU (UTP-glucose-1-phosphate uridylyltransferase), complemented on plasmid (protein, listed as Escherichia coli)
chain: MAAINTKVKKAVIPVAGLGTRMLPATKAIPKEMLPLVDKPLIQYVVNECIAAGITEIVLVTHSSKNSIENHFDTSFELEAMLEKRVKRQLLDEVQSICPPHVTIMQVRQGLAKGLGHAVLCAHPVVGDEPVAVILPDVILDEYESDLSQDNLAEMIRRFDETGHSQIMVEPVADVTAYGVVDCKGVELAPGESVPMVGVVEKPKADVAPSNLAIVGRYVLSADIWPLLAKTPPGAGDEIQLTDAIDMLIEKETVEAYHMKGKSHDCGNKLGYMQAFVEYGIRHNTLGTEFKAWLEEEMGIKK
B7: pgm: E. coli pgm (phosphoglucomutase), complemented on plasmid (protein, listed as Escherichia coli)
chain: MAIHNRAGQPAQQSDLINVAQLTAQYYVLKPEAGNAEHAVKFGTSGHRGSAARHSFNEPHILAIAQAIAEERAKNGITGPCYVGKDTHALSEPAFISVLEVLAANGVDVIVQENNGFTPTPAVSNAILVHNKKGGPLADGIVITPSHNPPEDGGIKYNPPNGGPADTNVTKVVEDRANALLADGLKGVKRISLDEAMASGHVKEQDLVQPFVEGLADIVDMAAIQKAGLTLGVDPLGGSGIEYWKRIGEYYNLNLTIVNDQVDQTFRFMHLDKDGAIRMDCSSECAMAGLLALRDKFDLAFANDPDYDRHGIVTPAGLMNPNHYLAVAINYLFQHRPQWGKDVAVGKTLVSSAMIDRVVNDLGRKLVEVPVGFKWFVDGLFDGSFGFGGEESAGASFLRFDGTPWSTDKDGIIMCLLAAEITAVTGKNPQEHYNELAKRFGAPSYNRLQAAATSAQKAALSKLSPEMVSASTLAGDPITARLTAAPGNGASIGGLKVMTDNGWFAARPSGTEDAYKIYCESFLGEEHRKQIEKEAVEIVSEVLKNA
B8: pgm-galU: pgm and galU (SEQ ID NOS: 92 and 93) complemented together on plasmid (protein, listed as Escherichia coli)
chain 1: MAIHNRAGQPAQQSDLINVAQLTAQYYVLKPEAGNAEHAVKFGTSGHRGSAARHSFNEPHILAIAQAIAEERAKNGITGPCYVGKDTHALSEPAFISVLEVLAANGVDVIVQENNGFTPTPAVSNAILVHNKKGGPLADGIVITPSHNPPEDGGIKYNPPNGGPADTNVTKVVEDRANALLADGLKGVKRISLDEAMASGHVKEQDLVQPFVEGLADIVDMAAIQKAGLTLGVDPLGGSGIEYWKRIGEYYNLNLTIVNDQVDQTFRFMHLDKDGAIRMDCSSECAMAGLLALRDKFDLAFANDPDYDRHGIVTPAGLMNPNHYLAVAINYLFQHRPQWGKDVAVGKTLVSSAMIDRVVNDLGRKLVEVPVGFKWFVDGLFDGSFGFGGEESAGASFLRFDGTPWSTDKDGIIMCLLAAEITAVTGKNPQEHYNELAKRFGAPSYNRLQAAATSAQKAALSKLSPEMVSASTLAGDPITARLTAAPGNGASIGGLKVMTDNGWFAARPSGTEDAYKIYCESFLGEEHRKQIEKEAVEIVSEVLKNA
chain 2: MAAINTKVKKAVIPVAGLGTRMLPATKAIPKEMLPLVDKPLIQYVVNECIAAGITEIVLVTHSSKNSIENHFDTSFELEAMLEKRVKRQLLDEVQSICPPHVTIMQVRQGLAKGLGHAVLCAHPVVGDEPVAVILPDVILDEYESDLSQDNLAEMIRRFDETGHSQIMVEPVADVTAYGVVDCKGVELAPGESVPMVGVVEKPKADVAPSNLAIVGRYVLSADIWPLLAKTPPGAGDEIQLTDAIDMLIEKETVEAYHMKGKSHDCGNKLGYMQAFVEYGIRHNTLGTEFKAWLEEEMGIKK
B9: ugpA: Bifidobacterium bifidum ugpA, complemented on plasmid (protein, listed as Bifidobacterium bifidum)
chain: MAFAEDLKRTEKMTVDDVFEQSAQKMREQGMSEIAISQFRHAYHVWASEKESAWIREDTVEPLHGVRSFHDVYKTIDHDKAVHAFAKTAFLKLNGGLGTSMGLQCAKSLLPVRRHKARQMRFLDIILGQVLTARTRLNVPLPVTFMNSFRTSDDTMKALRHQRKFKQTDIPLEIIQHQEPKIDAATGAPASWPANPDLEWCPPGHGDLFSTLRESGLLDTLLEHGFEYLFISNSDNLGARPSRTLAQYFEDTGAPFMVEVANRTYADRKGGHIVRDTATGRLILREMSQVHPDDKDAAQDIAKHPYFNTNNIWVRIDVLRDMLAEHDGVLPLPVIINNKTVDPIDPQSPAVVQLETAMGAAIGLFEGAICVQVDRMRFLPVKTTNDLFIMRSDRFHLTDSYEMEDGNYIFPNVDLDPRYYKNIEDFNERFPYNVPSLAAANSVSIKGDWTFGRDVIMFADARLEDRNEPSYVPNGEYVGPMGIEPGDWV

The test system of one data set is mogrol. Kind of data set: primary glycosylation at C3 and C24 hydroxyls of mogrol by cells expressing UGT enzymes. The data set is classed as cell-based, E. coli. As to conditions: mogrol fed; 37° C., 48 hrs; LCMS/MS. How it is done: Specifically, mogrol was fed to cells expressing various UGT enzymes. Reactions were incubated at 37° C. for 48 hrs. Products were quantified by LCMS/MS with authentic standards of each compound.
For B1, the “C3 O-Glucosylation” value is on record as “Yes” and the “C24 O-Glucosylation” value is listed as “No”.

Consider B2, for which the “C3 O-Glucosylation” value was “No” and the “C24 O-Glucosylation” value is given as “Yes”.

Consider B3, for which the “C3 O-Glucosylation” value is recorded as “No” and the “C24 O-Glucosylation” value is reported as “Yes”.

For B4, the “C3 O-Glucosylation” value is reported as “No” and the “C24 O-Glucosylation” value was “Yes”.

B5: the “C3 O-Glucosylation” value is reported as “No” and the “C24 O-Glucosylation” value is listed as “Yes”.

Another data set deals with steviol glycoside. Briefly: steviol glycoside bioconversion with overexpressed genes complemented on plasmid. The data set is classed as cell-based, E. coli. Conditions: chassis strain with UGT SEQ ID NOS: 14 and 24; stevia leaf extract and glucose fed; 37° C., 48 hr; FIG. 2. How it is done:
Other bacterial genes were overexpressed, and bioconversion tested as compared to the chassis strain expressing UGT enzymes of SEQ ID NOS: 14 and 24. […] Fold improvement is with respect to total steviol glycoside conversion. Stevia leaf extract and glucose were fed to the bioconversion strains. Bioconversion took place at 37° C. for 48 hr. Data were quantified by reverse phase LC DAD to quantify conversion of steviol glycosides.
For the molecule “adk: E. coli adk (adenylate kinase), complemented on plasmid”, the “improvement of total steviol glycoside conversion by gene complementation” value (shortened to “improvement”) was “improved overall glycosylation”.

Take B6: the “improvement” value is on record as “improved overall glycosylation”.

Turning to B7, the “improvement” value is listed as “improved overall glycosylation”.

Take B8: the “improvement” value is on record as “improved overall glycosylation”.

For B9, the “improvement” value is given as “improved overall glycosylation”.
